According to PMC7432094, “Flexible NAD^+ Binding in Deoxyhypusine Synthase Reflects the Dynamic Hypusine Modification of Translation Factor IF5A” (International Journal of Molecular Sciences, 2020):

Molecular target: the molecule itself
Assay: crystal structure; sitting drop, 20 °C, 100 mM phosphate-citrate pH 4.8, 32% ethanol, 5% PEG 1000; four PhoDHS molecules in the asymmetric unit, dimer of dimers with point group D2

B1: deoxyhypusine synthase from Pyrococcus horikoshii OT3 (enzyme, UniProt O50105 1-342, looked up)
chain: MKAKDIVLKKSEKIEGVEVKGPWLDDAQSLEEVVSYYYRIGFQATHLGRAIEIWRKVEEKRERGEEIRVFLGYTSNIISSGLREIIAWLVKEKKVDVIVTTAGGVEEDFIKSLKPFILGDWEVDDAELRKKGVNRIGNIFVPNDRYIEFEKYMIPFFERVLKIEEKLSRPLTASEFIYEMGRYMDEKLGKEKEKSVIYWAYKNNIPIFCPAITDGSIGDMLYFFKEERRDSRLIIDIANDIVKLNNLAITAKETASIILGGSLPKHAIINANLFRGGTDYAIYISTAVPWDGSLSGAPPREGVSWGKIKAKADYVEVWGDATLIFPILVWMVMKARGQGYAQ
notes: deoxyhypusine synthase (DHS), Pyrococcus horikoshii OT3, UniProtKB O50105, residues 1-342 (342 residues in all, 39 kDa); Homotetramer (dimer of dimers, D2); The His6 tag was removed with TEV protease at the site Glu-Asn-Leu-Tyr-Phe-Gln-Gly, so a residue of the site may remain at the N-terminus; also called PhoDHS; DHS; not shown: His6, N-terminal, cleaved
stoichiometry N: 4
